Assay: soluble fraction after stress (log2 fold change); higher = more stays soluble; pooled small domains, quantitative proteomics
Conditions: stress: pH 4
How it was run: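 Pooled custom libraries of small protein domains were stressed at pH 4 and then measured by high-throughput quantitative proteomics. The fold change in the amount of each domain that stays soluble after the acid stress serves as a measure of aggregation propensity. Fold changes are given on a log2 scale, and higher values mean more of the domain stayed soluble.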

Going from “HMAPNKLQQQEVWTKALPLLQQMIMTIRQIDAAGGDSSPERELLEETAARFDETLDVERFLP” to “HMAPPPLAGAREALREQIRRGSLSARRGFDAYADALGLPAGTRGAHPIFAALQRLDYPQALRLLDQEPT”, the “soluble fraction (log2)” value rises from -0.774 to -0.108.

Compared with “HMAPQVKIPNLVDVSQRQAEAILNSYGLKVGHLIYKPDLAKDAVLGFMFNGRSLKAGDELAKGSSIDLILG”, “HMAPRDKADKYVAAGIAEELVPILQKVGYYLVTDLKDVKAQKIQQQIGEIIKKYKLDIEKPSVQDIEGWN” is lower in “soluble fraction (log2)” value: 0.192 for the first, -0.259 for the second.

First: HMAQDIEQLEKAVSFYTRMDPAAAALSITNLDQKTAVNILMRMKDKQASAVLESMTAERSSELIDSIARK
Second: HMAQELPYEKVTMNGKMFYVYHVKAGEGLYLISRTFSVNADEILKFNPSIENGLKSGQVLYIPIK
The “soluble fraction (log2)” value of the first is lower: -0.863 for the first, -0.403 for the second.

Compared with “HMAQISDESALYDLVKSVLDANPQSIADYKAGRDRALGFLMGQAMKLSKGKANPPVINKILKEMLDK”, “HMAQKQLYIAGTDYTKNSTSQLVLAYFPAKPSSIKIFFDGIYQNKDKWSLFGKTIIFGLPISSNAVEVHYE” is lower in “soluble fraction (log2)” value: 0.292 for the first, -0.201 for the second.

Going from “HMAQLPADLSKVKSSQISDQQLTQIAQQAKNSGQSEQAVLQELKQRGLPDTEIQALGARISGLMQ” to “HMAQLVVTVDKLNKRTAIPVTLSDKSSNDSVVEKGFRFEGFPFVNTATNGKKWYKDREGFFYWAGGLMEEA”, the “soluble fraction (log2)” value falls from 0.404 to -0.0297.

“HMAQMDDPEMVLHIYNKMIQQRLFDTAVGYSYLKDLQEYLQSIPFIRKEDIFPIPVQHPQVEESLRKAK” and “HMAQTSAELIIEYLKRNDGFMELTDKSPADEIYETFGISKKNFKMAVGSLYKNRVIEIGQNGIRLVE” are within 0.2 log units of each other in “soluble fraction (log2)” value: 0.0635 for the first, -0.0445 for the second.

First: HMAQTTKWREIHKVKRKETIFGIARDNGLTVDELIEANPEMTKPGYELKKGDFIYIPFPSKNIDTNAGTQT
Second: HMARAESYGDIARLEQLLDEHANIAALDPGKLPAVRQQIWTLMRAARMDHDLGLAERPEDDSFDDMLLHV
The “soluble fraction (log2)” value of the first is lower: -0.627 for the first, -0.0475 for the second.

Compared with “HMARAPIYPDGLTQREVEVLSLVAAGKTDREIAEELFIALRTVTTHVGNILNKIGAANRTEAAGYATRQGL”, “HMARAVSPLEAIPGVGPRRRQQLLKQLGGMQEVARAGVEDLSRVPGISRALAQQIYDAFHGD” is higher in “soluble fraction (log2)” value: -1.4 for the first, 0.0348 for the second.

“HMARDPWDVLGVAKTATNDEIKRAFKRQAMMTHPDKQGGSEERFKEVNEAYSHIKDEQSRAKYQNSQ” and “HMARDSYNGVQRTISTLLGQGNYDRAYDVAVGARGQMSKQQWSDVAKRIYEVSGIKIDDSVKY” are within 0.2 log units of each other in “soluble fraction (log2)” value: 0.0164 for the first, -0.0224 for the second.

“HMARRSRADAVRNREALIDAAKAAFTEAGPDVSLEEIARRAGVGIGTLYRHFPTRDAVIEAVYR” and “HMARRTPPPTVSELNALLRVAAPHIQRVILLGIYTGARIGPSELFSLKWDDVDLTRGVIGIRL” are within 0.2 log units of each other in “soluble fraction (log2)” value: -0.206 for the first, -0.39 for the second.

Going from “HMARTDVKLREVAQELLRMGLLEESLRPHLYRTALASMERLNATLEPLDLIARADEIRGLVFLAVRH” to “HMARVSGIDLPKNKRGYIGLTYIYGIGRSTALHILNSAGVDPEKKVHEWNDDETTAIRNIINAEIKVEGAL”, the “soluble fraction (log2)” value rises from -0.548 to -0.248.

First: HMASAKTVAQSGTYKFAKTTAIKSSASDAASTVGTYYKGNTVNYNAKVTTNGQTWLRYTSYSGAQYYVKVS
Second: HMASANMPDVLGLDAETAKQVLAAKGFTKVEIYPMESSEPANRVVRQSEDRDTMVALTKEILLGVSNGS
The “soluble fraction (log2)” value of the first is higher: 0.218 for the first, -0.0377 for the second.

Going from “HMASENISYSQFINQVKNSMVESVSIEADGKTISGKYKSGSSFVTYGLNDPKLVDDLLSNNVEIL” to “HMASGLITEEQAKSKALAHAGLSASQVNFIWVKQDWEDGRRVYEVEFYTDDYQEYDYEIDARTGEILSFDY”, the “soluble fraction (log2)” value falls from 0.0122 to -1.06.

“HMASIGTATVTADNLRLRSEAGTGAETLTMAPKGAEVTVEEDAGDGWYKVTYGDTEGYMSGEWLKITLA” and “HMASLIGEEKALQIALEHAGVALENVAYSQVKLENDDGRWEYDTEFYSGSKEYDYEIDASTGEILGYDHD” are within 0.2 log units of each other in “soluble fraction (log2)” value: -0.0742 for the first, -0.0579 for the second.

“HMASLSITVNGETRRAAPGSIADLVRAIGLDPAKVAVERNGEIAPRSTLADVALADGDVLEIVHFVG” and “HMASMEDILAEAKTKFQEGDLFKSVNEGIQGTHKLTLPLRIKESRIVDASGAAVYREGIWATVDK” are within 0.2 log units of each other in “soluble fraction (log2)” value: 0.147 for the first, 0.185 for the second.

Going from “HMASMNPVWLEFPNIPWGSAGWRMGWGEDYMRRWAKWYISLAEVERQSYKSDWPEPQEWEGFYAFMEHGT” to “HMASPEIAFLNKFYQLSNTVNEISVMKIVKNYQEKYQQRISIEQMAKTLKTMGYAVRNNIISNIEEAPV”, the “soluble fraction (log2)” value rises from -1.23 to 0.0906.

Going from “HMASPRVWKDASSGRTLTGEFVELTKDAVKVRRANGDVVSLPLSRLTEEDITFAKGASETGGA” to “HMASVLTAKLSEREVDVLNLLARGFTNADIAAQLHLSEGTVRNHVSTIFAKLDVNDRTQAAVIAIRHGL”, the “soluble fraction (log2)” value falls from 0.0565 to -0.176.

First: HMASVLTGMLGRVTGELAPKGIVMVGNETWTAVSEDDSVIRIGEPVEVRSVEGLILTVFRRID
Second: HMATAADLLQSATGVPRSDALLLLAKLLGVAKERLIAHPETVVSEKTQATFSDWIERVRGGFPTTYLLG
The “soluble fraction (log2)” value of the first is lower: -1.55 for the first, 0.0658 for the second.

Compared with “HMATAEETTPLWARNRLSHAIFGPGSVTGEDERSFEVAFDNGDTLNFSKKSAHLYFTAMSSR”, “HMATARPPPPPESRVEVLFDGRWYAGTVVGGALDEHRATVFFDADRLSQVINFAETGIRVLGT” is higher in “soluble fraction (log2)” value: -0.808 for the first, -0.575 for the second.

“HMATEYIIPTVTNKKLEEAIGIAQLRGFEISVDEYKPSDIDEGTVLEQSPAAGTNAKQGDTISVTVSSG” and “HMATFTPYLVRITASVLNIRKGPGTTYAVTGQIKDRGVYTIVEQKGNWGRLKSGAGWISLSYTKK” are within 0.2 log units of each other in “soluble fraction (log2)” value: -0.103 for the first, 0.065 for the second.

“HMATPAFEMYKVRRGDTPAGLAKEWGFPDMASFYRINPDARSDWKRGLQLVKPMNEMAVLQATA” and “HMATPKYMELVRWINEQIESKNLVPGQKMYSENTLKEMFGVSRQTVRHAIGVLENEGVIRRIQGSGTYIN” are within 0.2 log units of each other in “soluble fraction (log2)” value: 0.109 for the first, 0.163 for the second.

“HMATPSTGQVSVVRLNLRVSPSISSPVVTRLTQGDTVKILAASDDGRWYKVATADGRTGWLYTIYITAE” and “HMATQTGTVKWFNEGKGFGFIAPDDGSKDLFAHFSEIKTTGFKTLAEAQRVEFEVTEGRKGLQASNIK” are within 0.2 log units of each other in “soluble fraction (log2)” value: -0.209 for the first, -0.244 for the second.

Compared with “HMATRLPFGFAKRFGVLVEGKDDQITVYHKDGLQTAVILEIQRYLARPFRFEAVTPEEFERRLGLAYQS”, “HMATSNDTQITGSLALRFDGSGDTFTVNVNGDDKLEINTEGTVIYKPLTTAPTYVSGGLFFSSSGDFYVG” is higher in “soluble fraction (log2)” value: -0.927 for the first, -0.163 for the second.

Going from “HMATTIDFTVGDDVQVMNGPLESFTGKVTELNEASQKVKVDVVMFGRVTNVELDFVQVKKIT” to “HMATTIEAPMPGKILDVKVNPGQAVSYGQVVLTMEAMKMETEIVAPADGTVASVLVKSGDMVETGAALVSL”, the “soluble fraction (log2)” value rises from -0.531 to -0.268.

Going from “HMATTMSADWRPSEDAVGILVNAEINARFIEDAIPEFVLYWRERGAVHGAWNSKFIEHIRRQWAKFSAS” to “HMATTPEETILEYINKNNRISKQEIADLMGITRDGVSYHIKKLRKNGLLEWIGSPSNGHWEIIE”, the “soluble fraction (log2)” value rises from -1.31 to -0.52.

“HMATVHPIRIQGGMTTQQGGKTVWLWVSDEGRLMTEDEIAGESGGTVSSRMVRGVRVLTGTGVIYG” and “HMATVIDVATTLGRPITDPDEQRQVLNWIGKTERIISARLGDLAALDRQILADVISEVVARRARN” are within 0.2 log units of each other in “soluble fraction (log2)” value: -0.57 for the first, -0.726 for the second.

Compared with “HMATVNIGNLTFTHKGDYASGTTYAKNDVVYYSTNGNAYIAKQATQGNAPTSTAHWDVFAAGSGG”, “HMAVDAASSTIGKNVEVSVANEKGDYENFNGKVKSASIKDGVVYLELELKDTGEIKEVPYSSLTKIT” is higher in “soluble fraction (log2)” value: 0.145 for the first, 0.355 for the second.

“HMAVDPSVLTRRERQALAWIARGLSNKEVARGLNLAESTVKVHVQSILRKLNLTSRVQAAVYAIEHGIDK” and “HMAVFRVGDKVKSMEGMIGEVRGINGRLIQVATPYGLRDYYPHQITKVENPLAAAPAPLNEEA” are within 0.2 log units of each other in “soluble fraction (log2)” value: -0.0198 for the first, 0.0157 for the second.

Compared with “HMAVGVFQKEDGYWGYRFSIIVDGKTIARRKFTDENGSKLRTKSEAVKARAAAMVAARMERVS”, “HMAVIILDEPTLGLDPAVRISLWQAIQSARDSTMSAFLITTHYIKEVADYLSAVKILDHGREVASGNPSAL” is lower in “soluble fraction (log2)” value: 0.24 for the first, -0.905 for the second.

Going from “HMAVKLELYRVFKEVAETGNISAAAKNLYISQSAVSQSIKQLETALQARLFARSPRGVTLTGEGQMLYQYV” to “HMAVKNAQIDVQQFFYSKSGEVDFGRKIKAIQSHFTPERLQSFTAAVPPSQWVSQLQVMWDSL”, the “soluble fraction (log2)” value falls from -0.652 to -1.68.

First: HMAVLGIQPVFHRSTGQTVYKSSVNTAKGRVYLGLFPTLTEALEIKLKYMQEHGHTKGITNLTNKLKEL
Second: HMAVPFTIDVSQNGRYFIEEDNQVVEVSIGFLEDRFLRIIKSNPDIEVIIRGDAKASYESIAELLAVLQ
The “soluble fraction (log2)” value of the first is higher: 0.22 for the first, -0.782 for the second.

“HMAVQPMDQVKAWLAEDNPADIKLLVPVLQKLDLLDYEQVRGEVADRAGVRKSLLDEAVKGN” and “HMAVRTELLALPAGWHGDASRLSTALAALQGVREAVVIASEGVAYLKVHGHDWDRDGARELLQN” are within 0.2 log units of each other in “soluble fraction (log2)” value: -0.119 for the first, -0.199 for the second.

Compared with “HMAVSGRGSIIGGVATVLDDFADSGKVWLEGEAWQARSSVPLKQDQEVVVRAMDGLVLVVEPVA”, “HMAVSNWQKLVSSIQTQLKILALYHGPEDGIYGPNTRSAIMLYEENIGLPVTGEPSRELLAHMLDQTD” is higher in “soluble fraction (log2)” value: -0.869 for the first, -0.194 for the second.

First: HMAVTNLTAKQISDTRWRVTWDSTLASPTYYVYRDGLLMMQTRQELYEFDAARGEQVQIDVLDDMAAAPAE
Second: HMAWAVRAGEGVLIRAGQPGFSATTRGTALSNGAIGEGVRVRNLGSGKEIQAWVVDKGEVETR
The “soluble fraction (log2)” value of the first is lower: -0.459 for the first, 0.136 for the second.

In the case of “HMAWIAVATKEDYSEYEWKELSPTTDWSTQTFDLGDLAGKTIYAVKMFFDHDTDVKDYKFNLGQLSITSN”, the “soluble fraction (log2)” value was -1.22.

From the domain aggregation screens of Martell et al. (2025)
